# In paper PMC2133148 (The Journal of Cell Biology, 1999):
# No end group written: not given here.
# T1: PS2-loop D (LexA fusion bait) (human, UniProt P49810 301-319, also: LexA fusion bait)
# T1 chain (looked up): TVGMAKLDPSSQGALQLPY
# B1: calmyrin (clone 7, full-length cDNA in pJG4-5) (natural protein, human, UniProt Q99828 1-191, looked up)
# chain: MGGSGSRLSKELLAEYQDLTFLTKQEILLAHRRFCELLPQEQRSVESSLRAQVPFEQILSLPELKANPFKERICRVFSTSPAKDSLSFEDFLDLLSVFSDTATPDIKSHYAFRIFDFDDDGTLNREDLSRLVNCLTGEGEDTRLSASEMKQLIDNILEESDIDRDGTINLSEFQHVISRSPDFASSFKIVL
# Tests used:
# Assay in all cases: two-hybrid
# [1] = molecular target: PS1-loop C (T281P, L282I) (LexA fusion bait) (human, UniProt P49768 264-294, T281P | L282I)
# [2] = molecular target: PS2-loop C (LexA fusion bait) (human, UniProt P49810 270-300)
# [3] = molecular target: PS2-loop B (LexA fusion bait) (human, UniProt P49810 270-319)
# [4] = molecular target: PS1-loop C (T281P, T291A) (LexA fusion bait) (human, UniProt P49768 264-294, T281P | T291A)
# [5] = molecular target: T1, PS2-loop D (LexA fusion bait)
# [6] = molecular target: PS1-loop C T291A (LexA fusion bait) (human, UniProt P49768 264-294, T291A)
# [7] = molecular target: PS1-loop C (LexA fusion bait) (human, UniProt P49768 264-294)
# [8] = molecular target: PS1-loop C T281P (LexA fusion bait) (human, UniProt P49768 264-294, T281P)
binder,measurement,setting,value
B1,interaction relative to PS1-loop C T281P,[1],1.7 fold of T281P alone
same,fold increase in β-galactosidase activity over the lamin B control,[2],74 fold
same,fold increase in β-galactosidase activity over the lamin B control,[3],8.5 fold
same,interaction relative to PS2-loop C,[4],~2 fold of the wild-type PS2-loop bait
same,fold increase in β-galactosidase activity over the lamin B control,[5],2.2 fold
same,interaction relative to PS2-loop C,[6],~0.33 fold of the PS2 level
same,fold increase in β-galactosidase activity over the lamin B control,[7],5.8 fold
same,interaction relative to PS2-loop C,[8],~0.5 fold of the PS2 level
